From patent US20210063414A1, “METHODS FOR PREVENTING AND/OR TREATING BONE LOSS CONDITIONS BY MODULATING IRISIN” (Dana-Farber Cancer Institute, Inc., priority 2018, published 2021)

Key:
Experiment in all cases: Crosslinking/co-immunoprecipitation/mass spectrometry (TMT quantitative proteomics) to identify irisin receptors
Type in all cases: binding
[1] = target: T1, MLO-Y4 cell surface proteins (Mus musculus, UniProt P97350); conditions: co-precipitated protein Pkp1 (PKP1_MOUSE)
T1 construct: endogenous in cells; host or cells: MLO-Y4
T1 sequence (P97350 1-728): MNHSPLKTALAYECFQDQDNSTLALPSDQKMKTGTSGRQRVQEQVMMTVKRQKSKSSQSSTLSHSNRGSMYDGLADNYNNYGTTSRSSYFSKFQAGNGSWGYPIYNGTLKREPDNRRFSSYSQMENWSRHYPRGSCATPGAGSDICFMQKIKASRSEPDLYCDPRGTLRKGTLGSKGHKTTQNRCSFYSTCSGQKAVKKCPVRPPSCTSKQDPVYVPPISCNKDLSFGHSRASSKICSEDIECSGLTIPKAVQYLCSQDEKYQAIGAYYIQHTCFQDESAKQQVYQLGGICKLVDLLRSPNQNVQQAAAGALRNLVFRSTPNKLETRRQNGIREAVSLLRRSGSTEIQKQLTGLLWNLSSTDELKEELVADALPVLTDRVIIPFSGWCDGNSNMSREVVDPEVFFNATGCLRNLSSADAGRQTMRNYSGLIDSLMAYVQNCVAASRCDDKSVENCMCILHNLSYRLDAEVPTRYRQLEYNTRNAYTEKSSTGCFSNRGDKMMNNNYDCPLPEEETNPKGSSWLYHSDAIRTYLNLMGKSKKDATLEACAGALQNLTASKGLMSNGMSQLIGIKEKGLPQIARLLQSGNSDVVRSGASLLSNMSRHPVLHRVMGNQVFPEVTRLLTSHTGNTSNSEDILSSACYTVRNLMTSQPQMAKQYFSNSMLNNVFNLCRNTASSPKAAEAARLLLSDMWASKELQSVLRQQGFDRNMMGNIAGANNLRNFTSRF
Procedure, shortened: (§1)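 Relative protein abundance came from 6-plex TMT MS3 quantitation on an Orbitrap Fusion Lumos, after in-gel trypsin digestion of Coomassie-stained SDS-PAGE lanes. Input was a Ni-NTA pulldown (250 mM imidazole elution) of lysates from murine MLO-Y4 cells. These cells were treated on ice with His-tagged irisin or adipsin (10 nM, 20 min) in serum-free medium, then crosslinked with 1.5 mM DTSSP for 30 min.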

[2] = target: T2, MLO-Y4 cell surface proteins (Mus musculus, UniProt Q9Z2I9); conditions: co-precipitated protein Sucla2 (SUCB1_MOUSE)
T2 construct: endogenous in cells; host or cells: MLO-Y4
T2 sequence (Q9Z2I9 54-463): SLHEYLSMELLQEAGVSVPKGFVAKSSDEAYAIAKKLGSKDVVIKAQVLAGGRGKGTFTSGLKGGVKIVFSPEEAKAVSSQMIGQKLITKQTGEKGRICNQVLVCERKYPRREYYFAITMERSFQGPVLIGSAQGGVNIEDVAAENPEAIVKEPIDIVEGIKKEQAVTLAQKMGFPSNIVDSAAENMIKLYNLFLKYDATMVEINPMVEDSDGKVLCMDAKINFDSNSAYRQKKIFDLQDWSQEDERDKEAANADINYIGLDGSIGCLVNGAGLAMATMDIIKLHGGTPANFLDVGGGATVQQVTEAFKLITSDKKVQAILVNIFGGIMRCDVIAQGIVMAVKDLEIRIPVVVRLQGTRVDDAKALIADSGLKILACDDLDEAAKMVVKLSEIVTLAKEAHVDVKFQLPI
Procedure, shortened: as §1

[3] = target: T3, MLO-Y4 cell surface proteins (Mus musculus, UniProt Q66GT5); conditions: co-precipitated protein Ptpmt1 (PTPM1_MOUSE)
T3 construct: endogenous in cells; host or cells: MLO-Y4
T3 sequence (Q66GT5 32-193): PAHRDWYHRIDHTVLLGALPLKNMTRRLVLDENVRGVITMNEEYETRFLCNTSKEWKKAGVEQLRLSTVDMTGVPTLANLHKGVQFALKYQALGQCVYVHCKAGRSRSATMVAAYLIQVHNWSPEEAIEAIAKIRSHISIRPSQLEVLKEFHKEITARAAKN
Procedure, shortened: as §1

adipsin
TMT signal-to-noise ratio [1]: 98.2846
TMT signal-to-noise ratio [2]: 50.8753
TMT signal-to-noise ratio [3]: 92.3664
